The text below walks through data of patent publication US20240158509A1 (MOMENTA PHARMACEUTICALS, published 2024).

Assay [1] addresses T1, endogenous cynomolgus monkey FcRn in monocytes (cynomolgus monkey, UniProt Q8SPV9 24-365; Q8SPW0 21-119).
T1 construct: whole, on cells; Target occupancy was measured ex vivo by FACS on fixed and permeabilized monocytes
As to the kind of experiment: target occupancy in vivo: monocytes from lysed whole blood of cynomolgus monkeys after one i.v. dose, fixed and permeabilized, unoccupied FcRn stained with Dy650-labeled N027, FACS.

Assay [2] deals with endogenously expressed human FcRn (human, UniProt P55899 24-365; P61769 21-119). As to the kind of experiment: cell-based or functional assay.
endogenously expressed human FcRn, sequence (P55899 24-365, chain 1 of 2): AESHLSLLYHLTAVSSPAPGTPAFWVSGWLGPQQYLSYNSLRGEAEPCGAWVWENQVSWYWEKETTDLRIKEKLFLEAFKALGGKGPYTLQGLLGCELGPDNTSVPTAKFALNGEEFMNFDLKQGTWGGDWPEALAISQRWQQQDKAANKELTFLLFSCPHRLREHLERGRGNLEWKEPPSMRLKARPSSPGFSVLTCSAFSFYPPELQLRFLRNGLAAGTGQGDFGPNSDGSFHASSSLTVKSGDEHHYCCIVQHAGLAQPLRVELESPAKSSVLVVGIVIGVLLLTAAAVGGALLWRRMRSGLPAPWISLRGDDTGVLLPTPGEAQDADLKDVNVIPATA
endogenously expressed human FcRn, sequence (P61769 21-119, chain 2 of 2): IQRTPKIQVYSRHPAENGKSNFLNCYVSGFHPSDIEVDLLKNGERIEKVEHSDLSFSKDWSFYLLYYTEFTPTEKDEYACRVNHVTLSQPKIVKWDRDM

T1 sequence (Q8SPV9 24-365, chain 1 of 2): as the sequence (P55899 24-365, chain 1 of 2) above, with N39D, E44Q, G99S, S189G, S190N, L217M, S269T, V319S, L332S, V335I counted along it
T1 sequence (Q8SPW0 21-119, chain 2 of 2): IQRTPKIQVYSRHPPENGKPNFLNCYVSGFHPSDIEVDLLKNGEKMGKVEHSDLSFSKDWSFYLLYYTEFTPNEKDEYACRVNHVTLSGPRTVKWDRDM

B1: N027 (antibody, human IgG1, lambda, N297A)
heavy: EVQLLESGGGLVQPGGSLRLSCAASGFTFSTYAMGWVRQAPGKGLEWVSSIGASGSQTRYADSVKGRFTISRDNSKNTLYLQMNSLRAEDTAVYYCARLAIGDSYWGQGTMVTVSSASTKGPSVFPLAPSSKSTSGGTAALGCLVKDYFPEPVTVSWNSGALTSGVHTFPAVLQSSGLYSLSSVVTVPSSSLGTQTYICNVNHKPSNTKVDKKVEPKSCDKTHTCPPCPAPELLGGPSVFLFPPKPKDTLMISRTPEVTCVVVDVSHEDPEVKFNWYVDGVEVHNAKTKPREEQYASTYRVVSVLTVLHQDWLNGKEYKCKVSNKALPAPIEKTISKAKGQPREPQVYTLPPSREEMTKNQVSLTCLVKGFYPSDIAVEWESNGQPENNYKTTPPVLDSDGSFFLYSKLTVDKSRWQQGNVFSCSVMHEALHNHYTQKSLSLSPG
light: QSALTQPASVSGSPGQSITISCTGTGSDVGSYNLVSWYQQHPGKAPKLMIYGDSERPSGVSNRFSGSKSGNTASLTISGLQAEDEADYYCSSYAGSGIYVFGTGTKVTVLGQPKAAPSVTLFPPSSEELQANKATLVCLISDFYPGAVTVAWKADSSPVKAGVETTTPSKQSNNKYAASSYLSLTPEQWKSHKSYSCQVTHEGSTVEKTVAPTECS
notes: Full-length IgG; In the occupancy assays unlabeled N027 was followed by dye-labeled N027 (Dy650, VivoTag645); DyLight594-N027 was used for imaging; also called M281; anti-FcRn antibody N027
B1: the binding result in assay [1] is given as “binds”. For the same molecule, in assay [2], the “intracellular IgG accumulation (VivoTag645-IgG, gMFI), ~IC50, HAECs” value was around 0.12 µg/mL; the “intracellular IgG accumulation (VivoTag645-IgG, gMFI), ~IC50, HUVECs” value is around 0.15 µg/mL; the “intracellular IgG accumulation (VivoTag645-IgG, gMFI), ~IC50, HVTs” value is around 0.07 µg/mL.
